The results in this text go back to PMC6899773 (Chemistry (Weinheim an Der Bergstrasse, Germany), 2019).

This series deals with the molecule itself. As to the kind of experiment: AUC.

B1: DC-SIGN extracellular domain (ECD) (domain or fragment, UniProt Q9NNX6 66-404, looked up)
chain: SISQEQSRQDAIYQNLTQLKAAVGELSEKSKLQEIYQELTQLKAAVGELPEKSKLQEIYQELTRLKAAVGELPEKSKLQEIYQELTWLKAAVGELPEKSKMQEIYQELTRLKAAVGELPEKSKQQEIYQELTRLKAAVGELPEKSKQQEIYQELTRLKAAVGELPEKSKQQEIYQELTQLKAAVERLCHPCPWEWTFFQGNCYFMSNSQRNWHDSITACKEVGAQLVVIKSAEEQNFLQLQSSRSNRFTWMGLSDLNQEGTWQWVDGSPLLPSFKQYWNRGEPNNVGEEDCAEFSGNGWNDDKCNLAKFWICKKSAASCSRDEEQFLSPAPATPNPPPA
By stoichiometry N is commonly meant the number of molecules, sites or subunits per partner or assembly. Take B1: the “stoichiometry N” value stood at 4.
